Legend:
[1] = biological target: T1, Monkey CD3 on cynomolgus HSC-F cells (cynomolgus monkey, UniProt Q95LI5 22-198; Q95LI7 23-181; Q95LI8 22-171); assay: flow cytometry on HSC-F cells
T1 construct: whole, on cells; also called Monkey CD3-expressing cynomolgus HSC-F cells; cynomolgus monkey CD3-expressing HSC-F cells

[2] = biological target: T2, Human CD3 on Jurkat cells (human, UniProt P07766 23-207; P09693 23-182; P04234 22-171); assay: flow cytometry on Jurkat cells
T2 construct: whole, on cells; also called Human CD3-expressing Jurkat cells; Jurkat (naturally expressing human CD3)

[3] = biological target: T3, Human CD3εγ recombinant antigen (acrobiosystems, Cat. No. CDG-H52W5) (human, UniProt P07766 23-126; P09693 23-116); assay: SPR chip (Carterra), antibody captured, antigen in flow;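 further: antibodies captured through anti-human IgG Fc at roughly 1000 RU, kinetic constants fitted with a 1:1 binding model in Carterra analysis software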
T3 construct: Bought recombinant protein
Experimental: Antibodies at three concentrations of 4, 2, and 1 μg/mL were immobilized on the HC200M chip containing anti-human IgG Fc secondary antibody (Xantec, Cat. No.: HC200M), and the antibody binding amount was controlled to approximately 1000RU. […] The kinetic constants were obtained by fitting using the 1:1 binding model of Kinetics software from Carterra.

| Binder | EC50 [1] | EC50 [2] | Kd [3] | koff [3] | kon [3] |
| --- | --- | --- | --- | --- | --- |
| CD3 monoclonal antibody M28 (antibody, human IgG1, lambda, V domains shown, IgG: VH28 + IgG1 mutant CH, VL-1 + CL) VH: EVQLVESGGGLVQPGGSLRLSCAASGFTFNTYAMNWVRQAPGKGLEWVARIRSKYNNYATYYADSVKDRFTISRDDSKSILYLQMNSLKTEDTAMYYCVRHHNFGNSYVSWFAYWGQGTLVTVSS VL: not shown | 0.287 nM | 0.854 nM | 2.53 nM | 0.00237 s⁻¹ | 938000 M⁻¹ s⁻¹ |
| CD3 monoclonal antibody M1 (antibody, human IgG1, lambda, V domains shown, IgG: VH1 + IgG1 mutant CH, VL-1 + CL) VH: EVQLVESGGGLVQPGGSLRLSCAASGFTFNTYAMNWVRQAPGKGLEWVARIRSKYNNYATYYADSVKGRFTISRDDSKSILYLQMNNLKTEDTAMYYCVRHANFLNSYVSWFAYWGQGTLVTVSS VL: not shown | 0.117 nM | 0.581 nM | 2.57 nM | 0.0105 s⁻¹ | 4.09e+06 M⁻¹ s⁻¹ |
| CD3 monoclonal antibody M2 (antibody, human IgG1, lambda, V domains shown, IgG: VH2 + IgG1 mutant CH, VL-1 + CL) VH: EVQLVESGGGLVQPGGSLRLSCAASGFTFNTYAMNWVRQAPGKGLEWVARIRSKYNNYATYYADSVKGRFTISRDDSKSSLYLQMNSLKTEDTAMYYCVRAKNFGNSYVSWFAYWGQGTLVTVSS VL: not shown | 0.225 nM | 0.214 nM | 6.6 nM | 0.00363 s⁻¹ | 550000 M⁻¹ s⁻¹ |
| CD3 monoclonal antibody M3 (antibody, human IgG1, lambda, V domains shown, IgG: VH3 + IgG1 mutant CH, VL-1 + CL) VH: EVQLVESGGGLVQPGGSLRLSCAASGFTFNTYAMNWVRQAPGKGLEWVARIRSKYNNYATYYADSVKDRFTISRDDSKSILYLQMNSLKTEDTAMYYCVRHGNFGNSYVSWFEYWGQGTLVTVSS VL: not shown | 0.315 nM | 0.261 nM | 1.36 nM | 0.0015 s⁻¹ | 1.1e+06 M⁻¹ s⁻¹ |
| CD3 monoclonal antibody M4 (antibody, human IgG1, lambda, V domains shown, IgG: VH4 + IgG1 mutant CH, VL-1 + CL) VH: EVQLVESGGGLVQPGGSLRLSCAASGFTFNTYAMNWVRQAPGKGLEWVARIRSKYNNYATYYADSVKDRFTISRDDSKSILYLQMNNLKTEDTAVYYCVRHGNFQNSYVSWFQYWGQGTLVTVSS VL: not shown | 0.434 nM | 0.402 nM | 3.4 nM | 0.00517 s⁻¹ | 1.52e+06 M⁻¹ s⁻¹ |
| CD3 monoclonal antibody M5 (antibody, human IgG1, lambda, V domains shown, IgG: VH5 + IgG1 mutant CH, VL-1 + CL) VH: EVQLVESGGGLVQPGGSLRLSCAASGFTFNTYAMNWVRQAPGKGLEWVARIRSKYNNYATYYADSVKDRFTISRDDSKSILYLQMNSLKTEDTAVYYCVRHGNFKNSYVSWFAYWGQGTLVTVSS VL: not shown | 0.152 nM | 0.154 nM | 5.84 nM | 0.0101 s⁻¹ | 1.74e+06 M⁻¹ s⁻¹ |
| CD3 monoclonal antibody M6 (antibody, human IgG1, lambda, V domains shown, IgG: VH6 + IgG1 mutant CH, VL-1 + CL) VH: EVQLVESGGGLVQPGGSLRLSCAASGFTFNTYAMNWVRQAPGKGLEWVARIRSKYNNYATYYADSVKGRFTISRDDSKSSLYLQMNSLKTEDTAMYYCVRHGNFYNSYVSWFAHWGQGTLVTVSS VL: not shown | 0.172 nM | 0.169 nM | 3.63 nM | 0.00354 s⁻¹ | 973000 M⁻¹ s⁻¹ |
| CD3 monoclonal antibody M7 (antibody, human IgG1, lambda, V domains shown, IgG: VH7 + IgG1 mutant CH, VL-1 + CL) VH: EVQLVESGGGLVQPGGSLRLSCAASGFTFNTYAMNWVRQAPGKGLEWVARIRSKYNNYATYYADSVKDRFTISRDDSKSSLYLQMNNLKTEDTAMYYCVRAGNFGNSYVSWFEYWGQGTLVTVSS VL: not shown | 0.69 nM | 1.71 nM | 2.39 nM | 0.0011 s⁻¹ | 460000 M⁻¹ s⁻¹ |
| CD3 monoclonal antibody M8 (antibody, human IgG1, lambda, V domains shown, IgG: VH8 + IgG1 mutant CH, VL-1 + CL) VH: EVQLVESGGGLVQPGGSLRLSCAASGFTFNTYAMNWVRQAPGKGLEWVARIRSKYNNYATYYADSVKDRFTISRDDSKSSLYLQMNNLKTEDTAMYYCVRHGNFGNTYVSWFAMWGQGTLVTVSS VL: not shown | 0.186 nM | 0.268 nM | 5.16 nM | 0.0032 s⁻¹ | 620000 M⁻¹ s⁻¹ |
| CD3 monoclonal antibody M9 (antibody, human IgG1, lambda, V domains shown, IgG: VH9 + IgG1 mutant CH, VL-1 + CL) VH: EVQLVESGGGLVQPGGSLRLSCAASGFTFNTYAMNWVRQAPGKGLEWVARIRSKYNNYATYYADSVKGRFTISRDDSKSILYLQMNSLKTEDTAMYYCVRHGNFGNSYVSWFKYWGQGTLVTVSS VL: not shown | 0.237 nM | 1.51 nM | 1.92 nM | 0.0025 s⁻¹ | 1.3e+06 M⁻¹ s⁻¹ |
| CD3 monoclonal antibody M10 (antibody, human IgG1, lambda, V domains shown, IgG: VH10 + IgG1 mutant CH, VL-1 + CL) VH: EVQLVESGGGLVQPGGSLRLSCAASGFTFNTYAMNWVRQAPGKGLEWVARIRSKYNNYATYYADSVKDRFTISRDDSKSSLYLQMNSLKTEDTAVYYCVRHSNFRNSYVSWFAYWGQGTLVTVSS VL: not shown | 0.194 nM | 1.23 nM | 2.15 nM | 0.00653 s⁻¹ | 3.04e+06 M⁻¹ s⁻¹ |
| CD3 monoclonal antibody M11 (antibody, human IgG1, lambda, V domains shown, IgG: VH11 + IgG1 mutant CH, VL-1 + CL) VH: EVQLVESGGGLVQPGGSLRLSCAASGFTFNTYAMNWVRQAPGKGLEWVARIRSKYNNYATYYADSVKDRFTISRDDSKSSLYLQMNSLKTEDTAVYYCVRHSNFVNSYVSWFAYWGQGTLVTVSS VL: not shown | 0.169 nM | 0.13 nM | 2.95 nM | 0.00677 s⁻¹ | 2.3e+06 M⁻¹ s⁻¹ |

— patent US20250059278A1 (SICHUAN HUIYU PHARMACEUTICAL, published 2025)
